Our source for the IC50 values is paper PMC4174574.

This experiment deals with Mcl-1 (myeloid cell leukemia-1), recombinant protein (UniProt Q07820). Nature of the experiment: SPR.

For orientation: IC50 means the concentration that inhibits the measured activity by half.

On to Noxa BH3 peptide, for which the IC50 is 0.062 µM.
